Laboratory results from patent publication US20180362652A1 (Biogen, published 2018).
Values joined by “and” are separate entries in the source; they are usually repeats but may differ in a detail not shown here. Equal values may be shown once.

Tests used:
[1] = target: T1, human BDCA2 (full-length, cell surface) (human, UniProt Q8WTT0 1-213); test: FACS
T1 construct: also called huBDCA2; surface human BDCA2
T1 sequence: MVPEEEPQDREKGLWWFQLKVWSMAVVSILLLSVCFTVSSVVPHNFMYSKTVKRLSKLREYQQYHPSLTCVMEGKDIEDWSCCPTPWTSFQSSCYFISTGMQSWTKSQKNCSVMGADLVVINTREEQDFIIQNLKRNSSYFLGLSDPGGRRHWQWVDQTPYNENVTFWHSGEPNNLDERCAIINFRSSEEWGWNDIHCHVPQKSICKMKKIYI

[2] = target: T2, cynomolgus monkey BDCA2 (full-length, cell surface, E73 SNP form) (cynomolgus monkey, UniProt Q8WTT0 1-213 (human entry)); test: FACS
T2 construct: also called cyno BDCA2; surface cynomolgus monkey BDCA2
T2 chain: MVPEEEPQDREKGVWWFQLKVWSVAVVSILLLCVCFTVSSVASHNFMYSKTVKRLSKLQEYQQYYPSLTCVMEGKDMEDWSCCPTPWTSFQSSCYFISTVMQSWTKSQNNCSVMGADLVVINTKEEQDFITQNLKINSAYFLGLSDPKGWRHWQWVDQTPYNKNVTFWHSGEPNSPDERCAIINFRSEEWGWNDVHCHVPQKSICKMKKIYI

[3] = target: T1, human BDCA2 (full-length, cell surface); test: cell-based or functional assay
[4] = target: T1, human BDCA2 (full-length, cell surface); test: flow cytometry, whole blood, Alexa647-labeled BIIB059 on pDCs
Experimental: (§1) Cynomolgus monkey (Toxikon, Inc, Bedford, Mass.) or human peripheral blood (Biogen Idec) were collected in sodium heparin collection tubes and maintained at room temperature. A FACS staining antibody cocktail for identifying pDCs was added to each whole blood aliquot, incorporating CD20, CD14, CD123 and HLA-DR antibodies. […] Blood was incubated on ice, protected from light, for 30 min. […] After a 10-15 min. incubation at room temperature, samples were centrifuged at 1400 rpm for 5 min. The supernatant was decanted, leaving only a pellet of white blood cells (WBC). Each WBC pellet was washed with 5 mL of FACS buffer (1% BSA+0.002% NaAzide+1 mM CaCl₂+1 mM MgCl₂ in PBS), and centrifuged at 1400 rpm for 5 min. The supernatant was decanted, and each WBC pellet was resuspended in 200 μL of FACS buffer and transferred to a 96-well round bottom plate (Fisher Scientific). The plate was centrifuged at 1400 rpm for 5 min. The supernatant was dumped out of the plate, and each WBC pellet was washed with 200 μL of FACS buffer. The plate was centrifuged at 1400 rpm for 5 min, and the supernatant dumped out of the plate. Following washing (as above), WBCs were resuspended in 200 μL of 1% paraformaldehyde (PFA) in PBS, and fixed at 4° C. overnight, protected from light. […] Each WBC pellet was resuspended in 250 μL of FACS buffer and fluorescence intensity measured on a LSRII 4-color FACS machine. […]

[5] = target: T2, cynomolgus monkey BDCA2 (full-length, …); test: as above
Experimental: as §1

[6] = target: T3, rat Clec4b2 (full-length, cell surface) (rat); test: dilution titration direct FACS on transiently transfected 293E cells
T3 construct: 293E cells co-transfected with rat FcεRIγ; Genbank NM_001005896; also called surface rat Clec4b2; closest rat homolog of human BDCA2
T3 chain: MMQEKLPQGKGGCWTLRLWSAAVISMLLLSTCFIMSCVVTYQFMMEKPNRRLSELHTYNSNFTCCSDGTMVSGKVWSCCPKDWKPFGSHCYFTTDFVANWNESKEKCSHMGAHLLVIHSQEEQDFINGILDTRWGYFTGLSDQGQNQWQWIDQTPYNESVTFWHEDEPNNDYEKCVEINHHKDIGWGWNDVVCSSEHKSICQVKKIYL

[7] = target: T4, monomeric huBDCA2 ectodomain (human, UniProt Q8WTT0 45-213); test: Octet, mAb from conditioned medium on anti-human Fc tips, monomeric huBDCA2 in solution
T4 construct: Prepared by proteolytic cleavage of the purified muIgG2a Fc-huBDCA2 fusion protein (pEAG2423); also called human BDCA2 ectodomain; human BDCA2 ECD
T4 sequence: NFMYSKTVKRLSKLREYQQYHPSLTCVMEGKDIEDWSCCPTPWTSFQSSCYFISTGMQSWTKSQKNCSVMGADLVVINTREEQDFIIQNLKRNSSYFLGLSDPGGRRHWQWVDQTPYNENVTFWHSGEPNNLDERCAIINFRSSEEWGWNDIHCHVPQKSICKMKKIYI

[8] = target: T2, cynomolgus monkey BDCA2 (full-length, …); test: flow cytometry, whole blood pDCs of cynomolgus monkey donor 10, anti-human IgG PE secondary
Experimental: The maximal values were taken from the values at the plateau in each assay (FIGS. 24 and 25).
MFI of PE was calculated with FlowJo software, and EC50 curves were generated in GraphPad Prism software.

B1: BIIB059 (antibody, human IgG1, kappa)
heavy: not shown
light: DIQLTQSPSSLSASVGDRVTITCKASQSVDYDGDSYMNWYQQKPGKAPKLLIYAASTLESGVPSRFSGSGSGTDFTLTISSLQPEDFATYYCQQANEDPRTFGQGTKVEIKRTVAAPSVFIFPPSDEQLKSGTASVVCLLNNFYPREAKVQWKVDNALQSGNSQESVTEQDSKDSTYSLSSTLTLSKADYEKHKVYACEVTHQGLSSPVTKSFNRGEC
notes: Humanized IgG1 kappa, mature chains; in some assays labelled with Alexa647; also called hu24F4 H4/L1 C95A; H4-L1-C95A (YL751/YL746)
- EC50 [1]: 7 nM
- EC50 [2]: 7 nM
- EC50 of BIIB059-mediated BDCA2 internalization (whole blood, 10 donors) [3]: 0.02 µg/mL
- IC50 for inhibition of TLR9-induced IFNα production by PBMC [3]: 0.001 µg/mL
- IC50 for inhibition of TLR9-induced IFNα production by PBMC from healthy donors [3]: 0.04 µg/mL
- IC50 for inhibition of immune complex-induced IFNα by pDCs [3]: 0.04 µg/mL
- IC50 of BIIB059 mediated inhibition of TLR9 induced IFNα (whole blood, 10 donors) [3]: 0.07 µg/mL
- EC50 [4]: 1 µg/mL to 2 µg/mL (2×) and 7 nM to 13 nM
- EC50 [5]: 2 µg/mL and 7 nM to 13 nM
- binding result [6]: no binding
- Kd [7]: 0.261 nM
- EC50 [8]: 1.2 µg/mL
